# Assay results: patent US20210132068A1
# Target: CD20 on CD20+ Daudi lymphoma cells (UniProt P11836)
# Assay: flow cytometry on CD20+ Daudi lymphoma cells, 30 minutes at 4° C.
# Sequence of UniProt P11836 (P11836 whole entry): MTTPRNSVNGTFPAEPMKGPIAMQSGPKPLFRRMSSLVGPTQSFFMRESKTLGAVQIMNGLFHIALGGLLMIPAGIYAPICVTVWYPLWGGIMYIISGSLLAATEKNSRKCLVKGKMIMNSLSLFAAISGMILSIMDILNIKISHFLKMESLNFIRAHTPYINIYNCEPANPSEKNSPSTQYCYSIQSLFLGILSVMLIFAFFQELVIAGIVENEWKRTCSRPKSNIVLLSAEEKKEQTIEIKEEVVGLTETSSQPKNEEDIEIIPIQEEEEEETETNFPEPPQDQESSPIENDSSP
substance,measurement,value
FITC-rituximab (antibody),% positive cells,95%
